Data: US12338277

What was measured:
Experiment in all cases: cell-based or functional assay
[1] = biological target: HIV-1 envelope of pseudovirus Q451.e2 (HIV-1)
[2] = biological target: HIV-1 Env of pseudovirus Ce1172_H1 (HIV-1)
[3] = biological target: HIV-1 envelope of pseudovirus 1394C9G1(Rev-) (HIV-1)
[4] = biological target: HIV-1 envelope of pseudovirus 6545.v4.c1 (HIV-1)
[5] = biological target: HIV-1 Env of pseudovirus WITO4160.33 (HIV-1)
[6] = biological target: HIV-1 Env of pseudovirus CNE19 (HIV-1)
[7] = biological target: HIV-1 envelope spike of pseudovirus TRJO4551.58 (HIV-1)
[8] = biological target: HIV-1 Env of pseudovirus 235-47 (HIV-1)
[9] = biological target: HIV-1 envelope of pseudovirus WEAU_d15_410_787 (HIV-1)
[10] = biological target: HIV-1 envelope of pseudovirus Du172.17 (HIV-1)
[11] = biological target: HIV-1 Env of pseudovirus REJO4541.67 (HIV-1)
[12] = biological target: HIV-1 Env of pseudovirus BJOX010000.06.2 (HIV-1)
[13] = biological target: HIV-1 Env of pseudovirus 3817.v2.c59 (HIV-1)
[14] = biological target: HIV-1 Env of pseudovirus WEAU_d15_410_787 (HIV-1)
[15] = biological target: HIV-1 Env of pseudovirus ZM249M.PL1 (HIV-1)
[16] = biological target: HIV-1 Env of pseudovirus CNE8 (HIV-1)
[17] = biological target: HIV-1 Env of pseudovirus 3016.v5.c45 (HIV-1)
[18] = biological target: HIV-1 Env of pseudovirus 1394C9G1(Rev-) (HIV-1)
[19] = biological target: HIV-1 Env of pseudovirus 249M B10 (HIV-1)
[20] = biological target: HIV-1 Env of pseudovirus A07412M1.vrc12 (HIV-1)
[21] = biological target: HIV-1 envelope spike of pseudovirus R1166.c1 (HIV-1)
[22] = biological target: HIV-1 envelope of pseudovirus Ce703010054_2A2 (HIV-1)
[23] = biological target: HIV-1 envelope of pseudovirus P1981_C5_3 (HIV-1)
[24] = biological target: Murine leukemia virus (MuLV) envelope on pseudovirus (Murine leukemia virus)
[25] = biological target: HIV-1 envelope of pseudovirus 6952.v1.c20 (HIV-1)
[26] = biological target: HIV-1 envelope of pseudovirus X1632_S2_B10 (HIV-1)
[27] = biological target: HIV-1 Env of pseudovirus ZM109F.PB4 (HIV-1)
[28] = biological target: HIV-1 Env of pseudovirus Ce1176_A3 (HIV-1)
[29] = biological target: HIV-1 envelope of pseudovirus R2184.c04 (HIV-1)
[30] = biological target: HIV-1 Env of pseudovirus 1054_07_TC4_1499 (HIV-1)
[31] = biological target: HIV-1 envelope of pseudovirus T250-4 (HIV-1)
[32] = biological target: HIV-1 envelope of pseudovirus T278-50 (HIV-1)
[33] = biological target: HIV-1 Env of pseudovirus T278-50 (HIV-1)
[34] = biological target: HIV-1 envelope of pseudovirus T255-34 (HIV-1)
[35] = biological target: HIV-1 Env of pseudovirus Ce2010_F5 (HIV-1)
[36] = biological target: HIV-1 Env of pseudovirus CNE20 (HIV-1)
[37] = biological target: HIV-1 envelope of pseudovirus BJOX025000.01.1 (HIV-1)
[38] = biological target: HIV-1 envelope of pseudovirus 89-F1_2_25 (HIV-1)
[39] = biological target: HIV-1 Env of pseudovirus YU-2 (HIV-1) (UniProt P35961)
HIV-1 Env of pseudovirus YU-2 (HIV-1), sequence (P35961 32-843 limits assumed): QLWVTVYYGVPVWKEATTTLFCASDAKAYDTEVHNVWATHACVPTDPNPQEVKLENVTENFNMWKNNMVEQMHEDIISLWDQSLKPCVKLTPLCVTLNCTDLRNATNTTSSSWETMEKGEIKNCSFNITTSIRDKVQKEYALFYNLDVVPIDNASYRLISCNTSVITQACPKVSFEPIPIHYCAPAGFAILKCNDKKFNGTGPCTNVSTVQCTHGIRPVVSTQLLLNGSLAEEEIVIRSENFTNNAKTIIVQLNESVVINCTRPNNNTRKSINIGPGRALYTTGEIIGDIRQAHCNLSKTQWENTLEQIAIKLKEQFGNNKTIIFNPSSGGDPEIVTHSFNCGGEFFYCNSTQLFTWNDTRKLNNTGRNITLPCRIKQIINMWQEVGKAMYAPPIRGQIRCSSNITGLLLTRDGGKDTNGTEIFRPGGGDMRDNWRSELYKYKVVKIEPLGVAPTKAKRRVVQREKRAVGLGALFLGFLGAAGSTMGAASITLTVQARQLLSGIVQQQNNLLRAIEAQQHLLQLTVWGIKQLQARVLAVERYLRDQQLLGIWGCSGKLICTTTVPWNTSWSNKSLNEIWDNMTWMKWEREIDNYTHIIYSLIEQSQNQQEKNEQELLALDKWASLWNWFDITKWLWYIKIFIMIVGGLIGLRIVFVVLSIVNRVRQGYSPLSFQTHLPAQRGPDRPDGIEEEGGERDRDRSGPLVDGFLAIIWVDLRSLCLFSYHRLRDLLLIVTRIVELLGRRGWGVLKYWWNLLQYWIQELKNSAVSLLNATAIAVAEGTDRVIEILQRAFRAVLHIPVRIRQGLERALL

[40] = biological target: HIV-1 Env of pseudovirus 928-28 (HIV-1)
[41] = biological target: HIV-1 Env of pseudovirus THRO4156.18 (HIV-1)
[42] = biological target: HIV-1 envelope of pseudovirus CNE8 (HIV-1)
[43] = biological target: HIV-1 Env of pseudovirus 6540.v4.c1 (HIV-1)
[44] = biological target: HIV-1 Env of pseudovirus Ce1086_B2 (HIV-1)
[45] = biological target: HIV-1 envelope of pseudovirus 6540.v4.c1 (HIV-1)
[46] = biological target: HIV-1 Env of pseudovirus 6480.v4.c25 (HIV-1)
[47] = biological target: HIV-1 envelope of pseudovirus ZM197M.PB7 (HIV-1)
[48] = biological target: HIV-1 envelope of pseudovirus 3817.v2.c59 (HIV-1)
[49] = biological target: HIV-1 Env of pseudovirus C2101.c01 (HIV-1)
[50] = biological target: HIV-1 envelope of pseudovirus 231965.c01 (HIV-1)

10-1074 (antibody), sequence (VH): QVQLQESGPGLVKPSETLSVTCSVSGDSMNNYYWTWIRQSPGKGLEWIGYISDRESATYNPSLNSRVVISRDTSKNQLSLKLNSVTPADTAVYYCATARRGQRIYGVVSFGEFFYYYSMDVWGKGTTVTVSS
10-1074 (antibody), sequence (V domain): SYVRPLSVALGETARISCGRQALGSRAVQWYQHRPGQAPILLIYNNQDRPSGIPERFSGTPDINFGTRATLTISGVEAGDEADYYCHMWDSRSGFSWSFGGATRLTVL

Substance: 10-1074 (antibody)
- IC50 (TZM-bl neutralization) [1]: > 50 µg/mL
- IC80 (TZM-bl neutralization) [2]: 0.166 µg/mL
- IC50 (TZM-bl neutralization) [3]: 0.05 µg/mL
- IC50 (TZM-bl neutralization) [4]: > 50 µg/mL
- IC80 (TZM-bl neutralization) [5]: 2.11 µg/mL
- IC80 (TZM-bl neutralization) [6]: > 50 µg/mL
- IC50 (TZM-bl neutralization assay) [7]: 0.17 µg/mL
- IC80 (TZM-bl neutralization assay) [7]: 0.693 µg/mL
- IC80 (TZM-bl neutralization) [8]: 0.163 µg/mL
- IC50 (TZM-bl neutralization) [9]: 0.104 µg/mL
- IC50 (TZM-bl neutralization) [10]: 0.121 µg/mL
- IC80 (TZM-bl neutralization) [11]: > 50 µg/mL
- IC80 (TZM-bl neutralization) [12]: > 50 µg/mL
- IC80 (TZM-bl neutralization) [13]: 14.9 µg/mL
- IC80 (TZM-bl neutralization) [14]: 0.375 µg/mL
- IC80 (TZM-bl neutralization) [15]: > 50 µg/mL
- IC80 (TZM-bl neutralization) [16]: > 50 µg/mL
- IC80 (TZM-bl neutralization) [17]: > 50 µg/mL
- IC80 (TZM-bl neutralization) [18]: 0.191 µg/mL
- IC80 (TZM-bl neutralization) [19]: > 50 µg/mL
- IC80 (TZM-bl neutralization) [20]: 0.048 µg/mL
- IC50 (TZM-bl neutralization assay) [21]: > 40 µg/mL
- IC80 (TZM-bl neutralization assay) [21]: > 40 µg/mL
- IC50 (TZM-bl neutralization) [22]: > 50 µg/mL
- IC50 (TZM-bl neutralization) [23]: 0.005 µg/mL
- IC50 (TZM-bl neutralization assay) [24]: > 40 µg/mL
- IC80 (TZM-bl neutralization assay) [24]: > 40 µg/mL
- IC50 (TZM-bl neutralization) [25]: 0.037 µg/mL
- IC50 (TZM-bl neutralization) [26]: > 50 µg/mL
- IC80 (TZM-bl neutralization) [27]: > 50 µg/mL
- IC80 (TZM-bl neutralization) [28]: 0.07 µg/mL
- IC50 (TZM-bl neutralization) [29]: > 50 µg/mL
- IC80 (TZM-bl neutralization) [30]: 0.563 µg/mL
- IC50 (TZM-bl neutralization) [31]: < 0.001 µg/mL
- IC50 (TZM-bl neutralization) [32]: 2.15 µg/mL
- IC80 (TZM-bl neutralization) [33]: 18.3 µg/mL
- IC50 (TZM-bl neutralization) [34]: > 50 µg/mL
- IC80 (TZM-bl neutralization) [35]: > 50 µg/mL
- IC80 (TZM-bl neutralization) [36]: 0.005 µg/mL
- IC50 (TZM-bl neutralization) [37]: > 50 µg/mL
- IC50 (TZM-bl neutralization) [38]: > 50 µg/mL
- IC80 (TZM-bl neutralization) [39]: 0.398 µg/mL
- IC80 (TZM-bl neutralization) [40]: 4.7 µg/mL
- IC80 (TZM-bl neutralization) [41]: > 50 µg/mL
- IC50 (TZM-bl neutralization) [42]: > 50 µg/mL
- IC80 (TZM-bl neutralization) [43]: > 50 µg/mL
- IC80 (TZM-bl neutralization) [44]: > 50 µg/mL
- IC50 (TZM-bl neutralization) [45]: > 50 µg/mL
- IC80 (TZM-bl neutralization) [46]: 0.041 µg/mL
- IC50 (TZM-bl neutralization) [47]: > 50 µg/mL
- IC50 (TZM-bl neutralization) [48]: 3.15 µg/mL
- IC80 (TZM-bl neutralization) [49]: > 50 µg/mL
- IC50 (TZM-bl neutralization) [50]: > 50 µg/mL

Substance: PGT121 (antibody)
- IC50 (TZM-bl neutralization) [1]: > 50 µg/mL
- IC80 (TZM-bl neutralization) [2]: 0.088 µg/mL
- IC50 (TZM-bl neutralization) [3]: 0.486 µg/mL
- IC50 (TZM-bl neutralization) [4]: > 50 µg/mL
- IC80 (TZM-bl neutralization) [5]: 6.01 µg/mL
- IC80 (TZM-bl neutralization) [6]: 0.189 µg/mL
- IC50 (TZM-bl neutralization assay) [7]: 3.9 µg/mL
- IC80 (TZM-bl neutralization assay) [7]: 26.9 µg/mL
- IC80 (TZM-bl neutralization) [8]: 1.68 µg/mL
- IC50 (TZM-bl neutralization) [9]: 0.083 µg/mL
- IC50 (TZM-bl neutralization) [10]: 0.115 µg/mL
- IC80 (TZM-bl neutralization) [11]: > 50 µg/mL
- IC80 (TZM-bl neutralization) [12]: > 50 µg/mL
- IC80 (TZM-bl neutralization) [13]: > 50 µg/mL
- IC80 (TZM-bl neutralization) [14]: 0.295 µg/mL
- IC80 (TZM-bl neutralization) [15]: > 50 µg/mL
- IC80 (TZM-bl neutralization) [16]: > 50 µg/mL
- IC80 (TZM-bl neutralization) [17]: > 50 µg/mL
- IC80 (TZM-bl neutralization) [18]: 3.37 µg/mL
- IC80 (TZM-bl neutralization) [19]: > 50 µg/mL
- IC80 (TZM-bl neutralization) [20]: 0.406 µg/mL
- IC50 (TZM-bl neutralization assay) [21]: > 40 µg/mL
- IC80 (TZM-bl neutralization assay) [21]: > 40 µg/mL
- IC50 (TZM-bl neutralization) [22]: > 50 µg/mL
- IC50 (TZM-bl neutralization) [23]: 0.004 µg/mL
- IC50 (TZM-bl neutralization assay) [24]: > 40 µg/mL
- IC80 (TZM-bl neutralization assay) [24]: > 40 µg/mL
- IC50 (TZM-bl neutralization) [25]: 0.085 µg/mL
- IC50 (TZM-bl neutralization) [26]: > 50 µg/mL
- IC80 (TZM-bl neutralization) [27]: > 50 µg/mL
- IC80 (TZM-bl neutralization) [28]: 0.058 µg/mL
- IC50 (TZM-bl neutralization) [29]: > 50 µg/mL
- IC80 (TZM-bl neutralization) [30]: 0.696 µg/mL
- IC50 (TZM-bl neutralization) [31]: 0.001 µg/mL
- IC50 (TZM-bl neutralization) [32]: > 50 µg/mL
- IC80 (TZM-bl neutralization) [33]: > 50 µg/mL
- IC50 (TZM-bl neutralization) [34]: 6.72 µg/mL
- IC80 (TZM-bl neutralization) [35]: > 50 µg/mL
- IC80 (TZM-bl neutralization) [36]: 0.008 µg/mL
- IC50 (TZM-bl neutralization) [37]: > 50 µg/mL
- IC50 (TZM-bl neutralization) [38]: > 50 µg/mL
- IC80 (TZM-bl neutralization) [39]: 0.356 µg/mL
- IC80 (TZM-bl neutralization) [40]: > 50 µg/mL
- IC80 (TZM-bl neutralization) [41]: > 50 µg/mL
- IC50 (TZM-bl neutralization) [42]: > 50 µg/mL
- IC80 (TZM-bl neutralization) [43]: > 50 µg/mL
- IC80 (TZM-bl neutralization) [44]: 0.006 µg/mL
- IC50 (TZM-bl neutralization) [45]: > 50 µg/mL
- IC80 (TZM-bl neutralization) [46]: 0.079 µg/mL
- IC50 (TZM-bl neutralization) [47]: > 50 µg/mL
- IC50 (TZM-bl neutralization) [48]: > 50 µg/mL
- IC80 (TZM-bl neutralization) [49]: > 50 µg/mL
- IC50 (TZM-bl neutralization) [50]: > 50 µg/mL
